Results from the DeepSol protein solubility set.

Test: soluble on expression in E. coli; label from the status in PepcDB or PDB records

Sequence	soluble on expression in E. coli
MGSDKIHHHHHHMISQNRLRVLARELGVRQGYAEKNYVNSWILWGIFTSDFGENLMFKGGTALSKLYFPQSWRFSEDLDFGVEGQYNGSEDDLRDVLDTVTERSGIEFTISEHHESRQQHYPTHYVDMSIQYRAVLDHPNTTSLDVMVDEYVAFDSVHHTHSYEDIPEFELQAYSVEEIFAEKLRAIFQRGAARDYYDLYQLLETESVEIEFDVVLPAFEAKCDHDDLDVDLTTGLPGDQREDIQRQWETSLPDLTGDPPLFDTVWKRLDEAVIDKGTE	not soluble
MGSDKIHHHHHHMISYGELIRQIRQSKKISQKEVYTGVISKSYAIEFEKGTHAISSLLLEKIVAKLMVSMEEFFLMYHQEALPEKEDFWEAYARTCKTDEASAWESLYQKISLEKGKVNQVKSAAIKLELDHIKGKQVADKKAVQILENYLIEAVFWTLQDIFLFTRMMHYLPLKSRVPFYYKLLNTLDRYRHFERGRSISQSALASIMDDFIEKNEIEYMELMIKSLEKISEDCDGTYSKILCMYYRGIVRWREGEKREGSEEIEQAVAILRALGYENKAAEYETMYRQFARENNDIKTME	not soluble
MGSDKIHHHHHHMIVEKVLIVDPIDGEFTGDVEIEEGKIVKVEKRECIPRGVLMPGFVDPHIHGVVGADTMNCDFSEMEEFLYSQGVTTFLATTVSTSLEKMKEILRKARDYILENPSTSLLGVHLEGPYISKEKKGAHSEKHIRPPSERELSEIDSPAKMLTFAPEIESSELLLRLVKRDIVLSAGHSIATFEEFMKFYKEGVKRITHFPNGLKPLHHREIGITGAGLLLDDVKLELICDGVHLSREMVKLVYKVKKANGIVLVTDSISAAGLKDGTTTLGDLVVKVKDGVPRLEDGTLAGSTLFFSQAVKNFRKFTGCSITELAKVSSYNSCVELGLDDRGRIAEGTRADLVLLDEDLNVVMTIKEGEVVFRSR	soluble
MGSDKIHHHHHHMKAIVFGGSGFIGSHIVNSLEADSVAYYSLEKGTNVKRNDAVWIQGDVTDYSKVEASMAGYDTVFFAVEDWAADEARNREILLNGIKNVVSAIKKASTDQKLVSFSMINQPSYPLEYFRTKRLVEDNTRVLKNGLVVRLSIVFGDGDHFTDRFVKLAEQVSHLPEEGNLAPVYVGDVVTVVNSIIKREGVYDICSNDNLPLIRIINYIRKNIGKKEIGSVKLEKGLSMLTETGLFSRYEAELMFQDYYRETSILDRYVKNPTSYLDFLRSILVEHTT	not soluble
MGSDKIHHHHHHMKALIFDVDDTLYDQIQPFERALERHIEVAREQIEPLYLSFRRYADEVFEATAIGKMSLKDSHIYRMKHALADFGYQVSDATALAIQIDYDYFQGQIELSPVFPEIFSWCQAQGIAMGIITNGPYRHQLRKIRTMGLVNWFELEHVLISGQVGITKPNPAIFQLMEERLGMSGEDICYLGDSFENDVVGAKAANWKAIWFNHRKRVEPTAPYYAYYVVTDWDELVEVIQSF	not soluble
MGSDKIHHHHHHMKAPEGIACGKRQLVVSDTGGGRLLSYSIENGSVRGGTEIKAEQVPYPTKVQLTSKGEILVIDGKLRRIAHFSPEGSFAGYLDLKGVPAPATIAPRGIRVDDKDNIHILDIFGARVIVTDAAGTFQSQMPFPEGYRFISDLAVSASGTTLLLDSVASRVYAAARGETAFKPLTDGMKEYLQFPTSIATDKQGKIFILDQTGNAVVTLGQDGSFQGRQLNIGWKNSFLHYPSQLCISEENDIDVVIADRNNNRIQVFRVVR	not soluble
MGSDKIHHHHHHMKASCYGSVGMAAMVAANLGEALKIFEQFIGSRCDAFKPELKQEQNDVYWSIHQPLKSFQLSSDATIFLLLGFIHIAKHLTGLSALGTVQLNMPEPIGFSKIKDKLGVSFLFDQKHNIWIFPKEYLMQPVLTADPMLAPLLKAQCKKDIDKLKLRSGWKAEISQVIKKLLINSQGEILKVKQVAQMMNMSERSLQRYLAIENTSFSALVDLTRKQYAQELLQNSLMSIESVALSLGYADTSHFTRAFKRWMGVTPKYYQTQLKLKNLEIRE	not soluble
MGSDKIHHHHHHMKAVIFDDFGSPDVLRIADVQRPVATTATVLVKVMAVAVNHVDTFVRSGTFKTALAAPHVAGRDLVGEVVASSQPDFQIGDQVWTNSMGYEGRMGATAEYVAVPTDRLYHVPDGVAPMPLVAAVHSAATAAIVLNDVMEICSGQTLLIEGAAGNVGRKLIQLAHQMGVTVVITASPRDFARCQQLGSTACYDYHAGFADQLTTDQWTFDHVIDTSGRVPLAINLALLRLGGQVTLITAPQDNQFEFPVRQFYMSQQRITGFVISHATVDQLAQAASRLNRAFSAGLLLDDQVSQRYFKDAAQCHAQLEAGTDHHQRFVLLPS	not soluble
MGSDKIHHHHHHMKAYYHLPGLFEFYELYKEFLPLYRKHREYFYDWCDIGSIYGAPADCIWGGGRVGFGEHDLKEVLKLMQEYGISARLTFSNSLLTKEHLPDKKCNELCRIFDIGRDNERSRGFGNGIIIYSDILLDYIKENYPDFYFVSSTTKVLTDFSEFKNELNREEFRYVVPDFRLNKSFDNLKALSQHQKEKVEFLCNECCWFGCTDRKKCYETVSRKNLGVDCPEHYCVAPDSGQGYLFSKAMENPGFIGVYDIKNTYLPMGFSNFKIEGRGLGSAMILEFLLYYMTKPQYQIHVREHIYLDNMLDLF	not soluble
MGSDKIHHHHHHMKCPTETLPMMRCNQILDAAERLIESQGIVSFKFSQLAKEVGCSTGTLYKFFERKEDVLVCLFLRSATSNHLPIFIDKHPELSELEKVLLPVLFTFETISRSKSFFTLRSVSVNTMVWQLASDEKVERFKKRINAFWGWFTDSLHAAVEQGELQATPLQIKELVQGLTFYLTGSLTQFESQLIAPEYLSNRRETCYRHLAKLMGQYKWNQALTPELFDSLEARTKAFFDQHYRDHMTCAACSALSGVNLKDRPACVRQAYQ	not soluble
MGSDKIHHHHHHMKEISCGRRTRVSFGKSREPLPIPDLVEIQKSSYRRFLEEGLLEVLKKFSPIYSQATRSDLRKSDRGFALEFVSTRTGEPAIDPLECKAKGLTYSVPIYATARLTDMKSGEMKEEEVFLGYIPYMTDRGTFIINGAERVVVNQIVVSPGLYFSSEYIDREEYGGYFLPSRGAWLEVILDPYDGVLYAGLDGKKVNLFLFLKTIGYEKDEDILSLYPTYLDADDEDSLLLHVGSILLEDIYDGGRKIAEKWDILTKDLAERILMIDDINQIKIVHPIAQNTFEKMLEVVSSSSEEGEEEEEKTKIYGLNEVTVVDAYLEIFRRLRPEELPRINAAKRYLHDLFFNPERYDLSEVGRYKVNERLRNAYIRYLIEVEGEDPEEARKKVYNETSLVLKPLDIVLASRILFDYFERRYVNDFEIDSYELKNLIRIFKEEYLEKRKTAPYDLRKLVSVFRRNYGVTSDLGVFAAIRYVSNINKELPSIPFDTKDHLGNKRVRTVGELVQREFERLFARAQKAIQERLTLINSLSKVSIQSLINIKSIISTVNQFFAMNQLSQFMDQVNPLSELTHKRRVSAVGPGGLRRESKVFEARNVHYSQYGRLCPIETPEGANIGFITSLAIYAKIDEYGFLMTPYRKVVNGKVTDEVVYLRANEEEEYKIIPATTPVDEEGNIIPERVVARMGEDIRLVPKEEVDFMDVSTKQPFSVSASLIPFLEHDDASRALMGSNMQRQAVPLLKTEAPLVGTGMEWEAAKNSGYVILAEHDGIVKEVDAARVVVHRTDENGNLMYDDKGNPVVDEYRLLKFVRSNQDTMINQKPIVNEGDFVKKGDPIADGPATDMGELALGRNILVAFMPWEGYNYEDAILVSQELLEEDVFTSIHIEVYETQARETRLGPEEITADIPNVSKELLKNLDENGIIRVGAYVVSDYGVGSQAILVGKVTPKGEGDTTPEEKIIRSVFGERGRDVKDTSLRLPHGVEGRVIRVDVYDQNDIAELGAGVLKLVRVYVASRKTLDIGDKLAGRHGNKGVVSNILPKEDMPFLPDGTPVQMVLNPLGIPSRMNVGQILETHLGWLAKLTGKWFATPVFEGAKEDEILRPLYEERKKRGLHLGDDENNPNGKVVLRDGRTGEPFDNPVVVGYMYMLKLIHIAKEKIHARSTGPYSLIHQQPLGGKSHFGGQRLGEMEVWALEAYGAAHTLAEMLTIKSDDIKGRNEAYKAILKNMNIPEPGVPESFRVLIKELRGLALDVRLYDENGNEIDIDKY	not soluble
MGSDKIHHHHHHMKFIVSSTALFSHLQAVSRVINSKNALPILDCFLFQLEDGTLSVTVSDSETTMVTSVEVNESDSNGKFAVAAKTLLDALKEIPEQPLTFDIKPDTYEITVQYQNGKYSLMGQNADEFPQSATLGDNAVRVEMEAQILLGGINRSVFATADDELRPVMNGIYFDITTEDITMVASDGHKLVRCKTLAARGNERAAFILPKKPATLLKNLLPKESGMVVIEFDERNAVFTLESYRMVCRLIEGRYPNYNSVIPQNNPHKVTVDRMQLMGALRRVSIFSSQASSLIKLRMQENQIVVSAQDIDFSTSAEETQVCQYAGAAMSIGFKSTFLIDILNNISADEVVIELADPSRAGVIIPVEQEENEDLLMLLMPMMLND	not soluble
MGSDKIHHHHHHMKFLNVIFKGHSISELIQEVIYVFIGYFFLMISYCTPRNKKKWVFGNKKIFKDNTKYLFIYMQEQHPEIQTIWITSSRRLVKRLRALSYSAYYKYSLKGLYHSLTAGVYVSTVNSNHINFFTSGRVFNVNLWHGISLKAMVDNKAVPADRSFLSRVCMPYVYEQYGLFFSTTPTIDDQYLRFFRFDPQVLYHGMSPRCSFMMMDHERLLRYIEEKEDPLMLDIIHTSRKYNKVFVYMPTWRINYGTHFMDYAFPDLYALNKAFSKINAILLLKLHPSMTYDAFKYKDLKHIYYIDANIDLYPILPFTDIMISDYSSIWYDYLLLPNKGVIHYDFDVDSYAKNEFGFFRDYKTFTPGVHASDFKQLLATIESSSSLQISEERRTWILDEMWGKGRSTNNEDLIKEICKRVEQVL	not soluble
MGSDKIHHHHHHMKFSEPLVEGRLIRRYKRFLADVQLPDGTEVTAHCPNTGSMLGCQPENARVWLSRSDNPKRKLQYTWELVETEPGVLACVNTVRPNAQARAAIEAGVVQSLAGYAQCRAEVRYGSEKSRIDLLLSGHDHDPDAWVEVKNVTLAEGGEGYFPDAVTERGQKHLRELMAQVQNGDRAVLFFVVNHTGIEQVRPADHIDARYGQLLREACEAGVEVIAYRAALAGEDGDPSGRLELVEEVPVSLEP	not soluble
MGSDKIHHHHHHMKGIISLIHGGKTFVDQIHSACQDAGIELYVISSNTVDADLLQNMSDKATVLEVIEGTDLNFESVLSFVEKLQQSNKQALACISVWENYRPLMARLNQALGAQDMCPEQVNLLRDKHLLRKVLYDAGLSQVNSRILTQEVFIQIQKNRELAFVKPRQGIASYGAFKLRPSTQWQQITEIAEQIQSDAVFSSSFADEVEFVAEDYISGVEFCFEIIHHDGQCNLIAIHEKLEVGEQNLTTLENVSASPPISLNRKQIEQANLWVSSIFERLELGSGCYHLEAKFDNNQWEVIEINPRIGGSYINESVAHVAGYSLLELWIRSLLRAGCSEYQAFLKVLSPHSEQFFERQQGSYFRVFFAEPNRTISRLNFKLGTPPIHKKLLMKEGQTTPNASRELFMAQALWSWSVSQDSVQTRAQISESLTALEVEYE	not soluble
MGSDKIHHHHHHMKHMNNSVDQQIALFGQSGSGKTALLCSFYGAARDSTQSEGQLFELSAKDDRHTKLMKMYLGMKEDSLAPPQNRFESHKTVFSLKQKNIPIKDAAKSDQVNLTWHDYPGEWFEGGAVTDSEKQDKVETFRNLLGSDVALFLVDGQKLHDYANEEERYLSYLFDGFIENLNQIKDAILEGGKQLQQFPRIWVIALSKADLWPDLQVKDFENLLNKKAGNEIIALRSKLLEFIDNDEAFSFGKDFLLLSSAKFTPGHIDISQRKGVDVLLPLACVLPMQRHLWWQELKVLPINLADILLGNEIAQMGFKIVSKVLKNKVSGTNNKAMAALVFAELVRDMVDQPTELLQKAREEAVGRREFLKAITAEFTRKLNQAEADQVLVRDFA	not soluble
